From the nanobody polyreactivity screen of Harvey et al. (2022) come the findings set out here.

This data set is described as follows: yeast display, Sf9 membrane polyspecificity reagent, FACS + sequencing; frameworks hold sequencing errors. In a few lines:
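Using colony PCR, genes from sorted yeast display clones were amplified, then sequenced on MiSeq at 2 × 250 and filtered by CDR length. The clones had been stained with 10% biotinylated, detergent-solubilized Sf9 membrane reagent for 1 hour at 4 °C and sorted by FACS into low and high (top ~1%) gates on anti-HA and streptavidin fluorescence. Polyreactivity labels come from the gate of origin.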
With “QVQLVESGGGLVQAGGSLRLSCAASGFTFGYYTMGWYRQAPGKERELVASISWDGGSTYYADSVKGRFTISRDNAKNTVYLQMHSLKPEDTAVYYCATDDYDQLAVGAYDYWGQGTQVTVSS”, the “polyreactivity (PSR sort gate)” value is on record as “low polyreactivity”.

With “QVQLVESGGGLVQAGGSLRLSCAASGFTFHGYAMGWYRQAPGKERELVAAISSSGGRTYYADSVKGRFTISRDNAKNTVYLQMNSLKPEDPEVYYCAAKARGIYVPDGGYWGQGTQVTVSS”, the “polyreactivity (PSR sort gate)” value is “high polyreactivity”.

Turning to “QVQLVESGGGLVQAGGSLRLSCAASGFTFHNNVMGWYRQAPGKERELVATISKSGGSTYYADSVKGRFTISRDNAKNTVYLQMNSLKPEDTAVYYCARRYRDYGRYGYWGQGTQVTVSS”, the “polyreactivity (PSR sort gate)” value is listed as “high polyreactivity”.

Consider “QVQLVESGGGLVQAGGSLRLSCAASGFTFHRNAMGWYRQAPGKERELVAAISTRGGSTAYADSVKGRFTISRDNAKNTVYLQMNSLKPEDTAVYYCAARVRVTGTYYTKYDYWGQGTQVTVSS”, for which the “polyreactivity (PSR sort gate)” value is “high polyreactivity”.

For “QVQLVESGGGLVQAGGSLRLSCAASGFTFHRNAMGWYRQAPGKERELVAAITLNGGSSTYYADSVKGRFTISRDNAKNTVYLQMNSLKPEDTAVYYCARDSYSYTFSKNSDPAEYDYWGQGTQVTVSS”, the “polyreactivity (PSR sort gate)” value is given as “low polyreactivity”.

On to “QVQLVESGGGLVQAGGSLRLSCAASGFTFHSYAMGWYRQAPGKERELVATISRSGGSTYYADSVKGRFTISRDNAKNTVYLQMNSLKPEDTAVYYCNKLLYGWSKPVGYDYYWGQGTQVTVSS”, for which the “polyreactivity (PSR sort gate)” value is recorded as “high polyreactivity”.

Regarding “QVQLVESGGGLVQAGGSLRLSCAASGFTFHTYAMGWYRQAPGKERELVAAIDSSGGITYYADSVKGRFTISRDHAKNTVYLQMNSLKPEDTAVYYCAAVFLLFGFEWSYDYWGQGTQVTVSS”, the “polyreactivity (PSR sort gate)” value is recorded as “low polyreactivity”.

In the case of “QVQLVESGGGLVQAGGSLRLSCAASGFTFHYYAMGWYRQAPGKEWELVAAITKSGGRTSYADSVKGRFTISRDNAKNTVYLQMNSLKPEDTAVYYCAAARYRARIGNDYWGQGTQVTVSS”, the “polyreactivity (PSR sort gate)” value is on record as “low polyreactivity”.

“QVQLVESGGGLVQAGGSLRLSCAASGFTFIDNTMGWYRQAPGKERELVAAISSDGRTNYAVSVKGRFTISRDNAKNTVYLQMNSLKAEDTAFYYCATEDNYWYVTGDLYHSAFYYWGQGTQVTVSS”: the “polyreactivity (PSR sort gate)” value is on record as “low polyreactivity”.

“QVQLVESGGGLVQAGGSLRLSCAASGFTFIPNAMGWYRQAPGKERELVADITWSGGTTYYADSVKGRFTISRDNAKNTVYLQMNSLKPEDTAVYYCNADYLFYAFDYWGQGTQVTVSS”: the “polyreactivity (PSR sort gate)” value was “low polyreactivity”.

As to “QVQLVESGGGLVQAGGSLRLSCAASGFTFIQYAMGWYRPAPGKERELVAAMTWSGGRTYYADSVKGRFTISRDNAKNTVYLHMNSLKPEDTAVYYCAKPFNIWGQGTKVTVSS”, the “polyreactivity (PSR sort gate)” value is reported as “high polyreactivity”.

As to “QVQLVESGGGLVQAGGSLRLSCAASGFTFIRNAMGWYRQAPGKERELVAAISWRGVRTYADSVKGRFTISRDNAKNTVYLQMHSQKPEDTAVYYCAARDAHYYPTMGYWGQGTQVTVSS”, the “polyreactivity (PSR sort gate)” value is given as “high polyreactivity”.

In the case of “QVQLVESGGGLVQAGGSLRLSCAASGFTFIRYAMGWDRQAPGKERELVAAISVSGGRTYYADSVKGRFTISRDNAKNTVYLQMNSLKPEDTAVYYCARRPSYYQGDYWGQGTQVTVSS”, the “polyreactivity (PSR sort gate)” value is on record as “high polyreactivity”.

For the sequence “QVQLVESGGGLVQAGGSLRLSCAASGFTFIRYAMGWYRPAPGKERELVATITRRGGSTYYADSVKGRFSISRDNAKNTVYLQMNCLKPEDTAVYYCNRDYVTYGKYYYWGQGTQVTVSS”, the “polyreactivity (PSR sort gate)” value is “high polyreactivity”.

In the case of “QVQLVESGGGLVQAGGSLRLSCAASGFTFIRYAMGWYRQAPGKARELVAAIRGTGTSTYYADSVKGRFTISRDNAKNTVYLQMNSLKPEDTAVYYCNKVAGRSPYTRYDYWGQGTQVTVSS”, the “polyreactivity (PSR sort gate)” value is on record as “low polyreactivity”.

On to “QVQLVESGGGLVQAGGSLRLSCAASGFTFISNAMGWYRQAPGKERELVAAISGRGGRTYYADSVKGRFTISRDNAKNTVYLQMNSLKPEDTAVYYCNAVFRKLHYDYWGQGTQVTVSS”, for which the “polyreactivity (PSR sort gate)” value is recorded as “high polyreactivity”.

For “QVQLVESGGGLVQAGGSLRLSCAASGFTFIVNPMGWYRQAPGKERELVAAISWNGGSTYYADSVKGRFTISRDNAKNTVYLQMNSLKPEDTAVYYCAVLYRSEYVWGQGTQVTVSS”, the “polyreactivity (PSR sort gate)” value was “low polyreactivity”.

For the sequence “QVQLVESGGGLVQAGGSLRLSCAASGFTFIYNAMGWYRQAPGKERELVAAISYRTSRTYYADSVKGRFTISRDNAKNTVYLQMNSLKPEDTAVYYCAKGYGRHGLDYWGQGTQVTVSS”, the “polyreactivity (PSR sort gate)” value is on record as “high polyreactivity”.

Consider “QVQLVESGGGLVQAGGSLRLSCAASGFTFIYNAMGWYRQAPGKERELVAAITGGGGSTYYADSVKGRFTISRDNAKYTVYLQMNSLKPEDTAVYYCNVYYPQSGVTYDYWGQGTLVTVSS”, for which the “polyreactivity (PSR sort gate)” value is listed as “low polyreactivity”.

Regarding “QVQLVESGGGLVQAGGSLRLSCAASGFTFIYYAMGWYRQAPGKERELVAAISTSGGRTYYADSVKGRFTISRDNAKNTVYLQMNCLKPEYTAVYYCAADGHYRYTSRYGLIVRYDYWGQGTQVTVSS”, the “polyreactivity (PSR sort gate)” value is “high polyreactivity”.

Take “QVQLVESGGGLVQAGGSLRLSCAASGFTFKDYAMGWYRQAPGKERELVAANSRSGGSTYYADSVKGRFTNSRDSAKNTVYLQMNSLKPEDTAVYYCAAAYVRYRDPYGYWGQGTQVTVSS”: the “polyreactivity (PSR sort gate)” value is “high polyreactivity”.

Regarding “QVQLVESGGGLVQAGGSLRLSCAASGFTFKFYAMGWYRQAPGKERELVAAISARGGITYYADSVKGRFTISRDNAKNTVYLQMNSLKPEDTAVYYCAAGVFGHYAFVEFDYWGQGTQVTVSS”, the “polyreactivity (PSR sort gate)” value is given as “high polyreactivity”.

Consider “QVQLVESGGGLVQAGGSLRLSCAASGFTFKGYAMGWYRQAPGKERELVAGITSGGRTYYADSVKGRFTISRDNAKNTVYLQMNSLKPEDTAVYYCAAVHYVAYYGYDYWGQGSQVTVSS”, for which the “polyreactivity (PSR sort gate)” value is recorded as “high polyreactivity”.

As to “QVQLVESGGGLVQAGGSLRLSCAASGFTFKHYAMGWYRQATGKERELVATITRGGSTNYADSVKGRFTISRDNAKNTVYLQMNSLKPEDSAVYYCAAADYVRYPFTRGYIYQGYDYWGQGTQVTVSS”, the “polyreactivity (PSR sort gate)” value is recorded as “low polyreactivity”.

In the case of “QVQLVESGGGLVQAGGSLRLSCAASGFTFKLNAMGWYRPAPGKERELVAAISWGGGTTYYADSVKGRFTISRDNAKNTVYLQMNSLKPEDTAVYYCAADGTGTYDYWGQGTQVTVSS”, the “polyreactivity (PSR sort gate)” value is on record as “low polyreactivity”.

Regarding “QVQLVESGGGLVQAGGSLRLSCAASGFTFKLNAMGWYRQAPGKERELVATISSSGGSTFYADSVKGRFTISRDNAKNTVYLQMNSLKPEDTAVYYCAADSGYGPYYYWGQGTQVTVSS”, the “polyreactivity (PSR sort gate)” value is “high polyreactivity”.

Regarding “QVQLVESGGGLVQAGGSLRLSCAASGFTFKLYAMGWYRQAPGNEREWVAAIRRGGTTNYADSVKGRFTISRDTAKNTVYLQMNSLKPEDTAVYYCAADGWYPGVYYPYTEFDYWGQGTQVTVSS”, the “polyreactivity (PSR sort gate)” value is given as “high polyreactivity”.

In the case of “QVQLVESGGGLVQAGGSLRLSCAASGFTFKYNAMGWYRQAPGKERELVASISSGSTNYADSVKGRFTISRDNAKNTVYLQMNSLKPEDTAVYYCAASVSRGKRFRYGYVFKMDYWGQGTQVTVSS”, the “polyreactivity (PSR sort gate)” value is listed as “low polyreactivity”.

As for “QVQLVESGGGLVQAGGSLRLSCAASGFTFKYYAMGWYRQAPGKEREFVAAISRSGGSTTYADSVKGRFTISRDNAKNTVYLQMNSLKPEDSAVYYCAVAYYTAYTPRDGEYWGQGTQVTVSS”, the “polyreactivity (PSR sort gate)” value is listed as “high polyreactivity”.

As for “QVQLVESGGGLVQAGGSLRLSCAASGFTFKYYAMGWYRQAPGKERELVAAIRRSAGSTNYADSVKGRFTISRDNAKNTVYLQMNSLKPEDTAVYYCNTVGTRQPMDYWGQGTLVTVSS”, the “polyreactivity (PSR sort gate)” value is recorded as “high polyreactivity”.

Regarding “QVQLVESGGGLVQAGGSLRLSCAASGFTFKYYAMGWYRQAPGKERELVAAISRGGSTYYADSVKGRFTFSRDNAKNTVYLQMNSLKPEDTAVYYCAARYVRVGYDYWGQGTQVTVSS”, the “polyreactivity (PSR sort gate)” value is listed as “high polyreactivity”.

In the case of “QVQLVESGGGLVQAGGSLRLSCAASGFTFKYYAMGWYRQAPGKERELVAAITSGGSTYADSVKGRFTISRDNAKITVYLQMNSLKPEDTAVYYCAASIDSGKWLGRRYDYWGQGTQVTVSS”, the “polyreactivity (PSR sort gate)” value is reported as “low polyreactivity”.

On to “QVQLVESGGGLVQAGGSLRLSCAASGFTFKYYTMGWYRQAPGKERELVAVISRTGSTNYADSVKGRFTISRDNAKNTVYLQMNSLKPEDTAVYYFITARGKYAFFDVDYWGQGTQVTVTS”, for which the “polyreactivity (PSR sort gate)” value was “high polyreactivity”.

With “QVQLVESGGGLVQAGGSLRLSCAASGFTFLGYDMGWYRQAPGKERELVATISSGGRTYYADSVKGRFTISRDNAKNTVYLQMNSMKPEDTAVYYFAAPRFRRLDFDFWGQGTQVTVSS”, the “polyreactivity (PSR sort gate)” value was “low polyreactivity”.

As to “QVQLVESGGGLVQAGGSLRLSCAASGFTFLKNAMVWYRQAPGKERELVAAITGSGGSTYYADSVKGRFTISRDNAKNTVYLQMNSLKPEDTAVYYCNVRRGLRAYEYWGQGTQVTVSS”, the “polyreactivity (PSR sort gate)” value is reported as “high polyreactivity”.

Take “QVQLVESGGGLVQAGGSLRLSCAASGFTFLKYAIGWYRQAPGKERELVAAISFSTGRTYYADSVKGRFTISRDNAKNTVYLQMNSLKPEDPAVYYGAAGYWPGYSLTYRGGFWGQGTQVTVSS”: the “polyreactivity (PSR sort gate)” value is “high polyreactivity”.

For “QVQLVESGGGLVQAGGSLRLSCAASGFTFLSNAMGWYRQAPGKERELVATINSGGSTNYADSVKGRFTISRDNAKNTVYLQMNSLKPEDTAVYYCAAKLWRYYHYDYWGQGTQVTVSS”, the “polyreactivity (PSR sort gate)” value is “low polyreactivity”.

As to “QVQLVESGGGLVQAGGSLRLSCAASGFTFLTYAMGWYRQAPGKERELVAAINNSGGRTYYADSVKGRFTISRDNAKNTVYLQMNSLKPEDTAVYYCAADYLRGKHRYGYWGQGTQVTVSS”, the “polyreactivity (PSR sort gate)” value is “high polyreactivity”.

For the sequence “QVQLVESGGGLVQAGGSLRLSCAASGFTFLYNAMGWYRQAPGKERELVASIRTGTGTYYADSVKGRFTISRDNAKNTVYLQMNSLKPEDTAVYYCAAENFYPYTYYASDYWGQGTQVTVSS”, the “polyreactivity (PSR sort gate)” value is given as “high polyreactivity”.

For the sequence “QVQLVESGGGLVQAGGSLRLSCAASGFTFNANAMGWYRQAPGKERELVADISLSGGRTYYADSVKGRFTISRDNAKNTVYLQMNSLKPEDTAVYYCAASPDGSFRRFSRVVSGDYWGQGTQVTVSS”, the “polyreactivity (PSR sort gate)” value is given as “high polyreactivity”.

Regarding “QVQLVESGGGLVQAGGSLRLSCAASGFTFNANAMGWYRQAPGKERELVAVNTRSGGRTYYADSVKGRFTISRDNAKNTVYLQMNSLKPEDTAVYYCAKEGPSRVYQGTDSASDYWGQGTQVTVSS”, the “polyreactivity (PSR sort gate)” value was “high polyreactivity”.
